From paper PMC10002499 (2023) come the findings set out here.

What is called Kd is the concentration at which binding is half-saturated.

The target in this assay is PDCD6 (ALG-2) construct (rat, UniProt G3V7W1 1-191). Put plainly: SPR; 0 added Ca2+. For orientation: In SPR one partner is held on a chip, and binding of the other changes the refractive index at the surface.
PDCD6 (ALG-2) construct, sequence (G3V7W1 whole entry): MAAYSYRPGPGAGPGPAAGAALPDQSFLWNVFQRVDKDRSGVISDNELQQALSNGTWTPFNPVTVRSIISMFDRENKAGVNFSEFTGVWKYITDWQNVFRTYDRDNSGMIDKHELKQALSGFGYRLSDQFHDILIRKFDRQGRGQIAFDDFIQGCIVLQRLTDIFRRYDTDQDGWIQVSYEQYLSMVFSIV

B1: dysferlin extended C2DE region (aa 1284-1576) (domain or fragment)
chain: AIHHIPGFEMHETSRILDETEDTDLPYPPPQREANIYMVPQNIKPALQRTAIEILAWGLRNIKSYQMASVSSPSLVVECGGQTVQSCVIRNLRKNPNFDVCTLFMEVMLPREDLYCPPIVVKVIDNRQFGRRPVVGQCTIRSLENFLCDPYSAESPSPQGGPDDVSLLSPGEDVLIDIDDKEPLIPVQEEEFIDWWSKFFASIGEREKCGSYLEKDFDTLKVYDTQLENVEAFGGLSDFCNTFKLYRGKTQEDTEDPSVIGEFKGLFKIYPLPEDPAIPMPPRQFHQLAAQGP
B1: the Kd was determined as 160 nM.
